What all share (assay type): cell-based
One assay relates to ERAD substrate CD3-δ. Kind of assay: CD3-δ level in co-transfected cells by immunoblotting. Particulars: co-transfection with CD3-δ; immunoblot. The procedure:
(§1) Transfections of HT1080, NIH 3T3 and HEK 293T cells were carried out ˜24 hr after plating using Polyfect (Qiagen, Valencia, Calif.) and cells harvested after ˜48 hr. J558 cells were transfected by electroporation using Bio-rad GENE pulser II at settings of 250 v, 950uF. Vector without insert was used to equalize total plasmid. In most experiments 0.15 μg of pEGFP-C1 served as an internal control. For experiments not involving immunoprecipitation, 6×10^5 cells were plated in 6 well plates and cell lysis was with Mammalian Protein Extraction Reagent (Pierce). For immunoprecipitation, 2.4×10^6 cells were seeded in 100 mm dishes and cells were lysed in RIPA buffer (1×PBS, 1% Nonidet P40. 0.5% sodium deoxycholate, 0.1% SDS). Lysis buffers were supplemented with Protease Inhibitor Cocktail (Sigma) and 10 mM iodoacetamide. Supernatants were analyzed after a 10,000×g centrifugation using standard techniques for immunoprecipitation, SDS-PAGE, immunoblotting and ECL. Treatment of cells with MG132 (Sigma) was at 50 μM for eight hr. Cycloheximnide was used at 50 μg/ml. All cells were collected at the end of the six hr chase.
FIG. 7 depicts the stabilization of CD3-δ protein in cells transfected with the G2BD, but not with the G2BD with amino acids 579-584 (of SEQ ID NO:2) mutated. HEK 293T cells were transfected with the ERAD substrate CD3-δ along with the indicated GFP fusions of gp78. The left and right sides are two separate experiments.
To test this, GFP fusions of either a minimal E2 binding domain (GFP-574-611) or a more extended region that includes the C-terminus of gp78 (GFP-574-643) were evaluated (FIG. 21A). […] To assess this further, the C-terminal region of gp78 was fused to the eight amino acid Flag tag. […] Mdm2 is a RING finger E3 for both itself and p53 that is neither an ERAD substrate nor known to utilize Ube2G2 as an E2. […] To establish with certainty that the effect observed with expression of the Ube2G2 binding site is a consequence of binding endogenous E2, and not due to other unanticipated effects, cells were co-transfected with increasing amounts of Ube2G2 (FIG. 21C, lanes 3 and 4). […] These findings clearly establish that the isolated E2 binding site has the potential to markedly alter ERAD of CD3-δ. To ensure the effect observed was not peculiar to one substrate, TCR-α was evaluated (FIG. 21D).
On the technique in general: In western blotting, separated proteins are transferred to a membrane and probed.

Assay [1] deals with gp78. The assay can be described thus: gp78 level in transfected cells by immunoblotting. Particulars: full-length gp78 forms; immunoblot. The protocol:
as §1, with “All cells were collected at the end of the six hr chase.” left out
(§2) gp78 is degraded in a proteasome-dependent manner, and deletion of the entire cytoplasmic domain results in its stabilization. […] To determine the significance of the RING finger, Cue domain and Ube2G2 binding site on gp78 stability, mutations of each were evaluated within full-length gp78. […]

In assay [2] the test system is gp78. The assay can be described thus: gp78 ubiquitylation in transfected cells (IP anti-gp78, IB anti-ubiquitin). The settings on record: 50 μM MG132 eight hours. The protocol:
FIGS. 20A-20E depict the requirement of multiple domains of gp78 to target itself and a heterologous ERAD substrate. (FIG. 20A) Cells were co-transfected with the indicated forms of full length gp78 together with CD3-δ and lysates analyzed by IB. (B) Cells were transfected with wild type and mutant gp78 plasmids as indicated. Samples were treated with 50 μM MG132 for eight hours, lysates IP'ed with anti-gp78 followed by […] with either antiubiquitin (upper) or anti-gp78 (lower). Arrow in upper panel indicates migration of unmodified gp78. (FIGS. 20C and 20D) Cells were co-transfected with HA-CD3-δ and wild type (WT) or mutant forms of gp78. Cells were treated with cycloheximide (CHX) as indicated. (FIG. 20E) Graphic representation of CD3-δ levels from FIGS. 20C and 20D (fall length gp78 transfections only), Cue-m1, 2 is the average of data shown in FIGS. 20C and 20D.
as §1, with “Lysis buffers were supplemented with Protease Inhibitor Cocktail (Sigma) and 10 mM iodoacetamide.” left out, “Treatment of cells with MG132 (Sigma) was at 50 μM for eight hr. Cycloheximnide was used at 50 μg/ml. All cells were collected at the end of the six hr chase.” left out
as §2

Another assay deals with T1, Myc-Ube2G2 (Mus musculus, UniProt P60605).
T1 construct: expressed in transfected cells; host or cells: HEK 293T
T1 sequence (P60605 1-165): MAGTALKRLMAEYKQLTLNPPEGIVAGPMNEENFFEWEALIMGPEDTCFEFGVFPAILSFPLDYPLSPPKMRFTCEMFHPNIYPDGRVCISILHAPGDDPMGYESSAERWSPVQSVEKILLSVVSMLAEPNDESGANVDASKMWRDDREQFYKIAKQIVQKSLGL
The assay can be described thus: Co-immunoprecipitation with co-expressed Myc-Ube2G2 in cells. Particulars: anti-Myc IP, anti-gp78 IB; MG132 8 hr. The procedure: as §1
FIG. 5 depicts the results of immunoprecipitation of Ube2G2 (MmUbc7) from HEK 293T cells co-transfected with a plasmid encoding myc-tagged MmUbc7/Ube2G2 together with s plasmid encoding various forms of gp78. HEK 293T cells were transfected with a plasmid encoding myc-tagged MmUbc7/Ube2G2 together with plasmids encoding various forms of gp78. After 48 hours, cells were harvested and co-immuntoprecipitated with an anti-Myc tage. Anti-gp78 was used for detection. “R2M” indicates a mutation of two crucial residues in the RING finger. “T” indicates C terminal truncations at the indicated amino acids. ΔB is the mutation indicated above in FIG. 4 in the context of the full length gp78 and “Cue12M” indicates mutations in the Cue domain of gp78.
To confirm the significance of the Ube2G2 binding site in cells, a variety of mutations and truncations of full-length gp78 were tested for binding of co-expressed Myc-Ube2G2 (FIG. 19A). Cells were treated with the proteasome inhibitor MG132 in an attempt to equalize levels of the various forms of gp78.

B1: gp78Cue-m1, 2: full-length gp78 with mutations in the Cue domain (label Cue-m1, 2 in b279) (protein)
chain: MPLLFLERFPWPSLRTYTGLSGLALLGTIISAYRALSQPEAGPGEPDQLTASLQPEPPAPARPSAGGPRARDVAQYLLSDSLFVWVLVNTACCVLMLVAKLIQCIVFGPLRVSERQHLKDKFWNFIFYKFIFIFGVLNVQTVEEVVMWCLWFAGLVFLHLMVQLCKDRFEYLSFSPTTPMSSHGRVLSLLVAMLLSCCGLAAVCSITGYTHGMHTLAFMAAESLLVTVRTAHVILRYVIHLWDLNHEGTWEGKGTYVYYTDFVMELTLLSLDLMHHIHMLLFGNIWLSMASLVIFMQLRYLFHEVQRRIRRHKNYLRVVGNMEARFAVATPEELAVNNDDCAICWDSMQAARKLPCGHLFHNSCLRSWLEQDTSCPTCRMSLNIADNNRVREEHQGENLDENLVPVAAAEGRPRLNQHNHFFHFDGSRIASWLPSFSVEVMHTTNILGITQASNSQLNAMAHQIQEGGRQVPYHLRLQVDQLTRSVEITTDNILEGRIQVPFPTQRSDSIRPALNSPVERPSSDQEEGETSAQTERVPLDLSPRLEETLDFGEVEVEPSEVEDFEARGSRFSKSADERQRMLVQRKDELLQQARKRFLNKSSEDDAASESFLPLEGASSDPVTLRRRMLAAAAERRLQKQQTS
Take B1: in the assay with ERAD substrate CD3-δ, the “effect on CD3-δ level (stabilization)” value is recorded as “marked increase in CD3-δ”. Also, in the assay with gp78 [1], the “gp78 level compared to wild type” value was “increased gp78”. The “gp78 ubiquitylation (ubiquitin immunoreactivity)” value in the assay on gp78 [2] is given as “dramatic decrease in ubiquitin immunoreactivity”.

B2: gp78E2-m2: full-length gp78 with residues 579-584 mutated (label E2-m2 in b279) (protein)
chain: MPLLFLERFPWPSLRTYTGLSGLALLGTIISAYRALSQPEAGPGEPDQLTASLQPEPPAPARPSAGGPRARDVAQYLLSDSLFVWVLVNTACCVLMLVAKLIQCIVFGPLRVSERQHLKDKFWNFIFYKFIFIFGVLNVQTVEEVVMWCLWFAGLVFLHLMVQLCKDRFEYLSFSPTTPMSSHGRVLSLLVAMLLSCCGLAAVCSITGYTHGMHTLAFMAAESLLVTVRTAHVILRYVIHLWDLNHEGTWEGKGTYVYYTDFVMELTLLSLDLMHHIHMLLFGNIWLSMASLVIFMQLRYLFHEVQRRIRRHKNYLRVVGNMEARFAVATPEELAVNNDDCAICWDSMQAARKLPCGHLFHNSCLRSWLEQDTSCPTCRMSLNIADNNRVREEHQGENLDENLVPVAAAEGRPRLNQHNHFFHFDGSRIASWLPSFSVEVMHTTNILGITQASNSQLNAMAHQIQEMFPQVPYHLVLQDLQLTRSVEITTDNILEGRIQVPFPTQRSDSIRPALNSPVERPSSDQEEGETSAQTERVPLDLSPRLEETLDFGEVEVEPSEVEDFEARGSRFSKSADERAAAGGGRKDELLQQARKRFLNKSSEDDAASESFLPLEGASSDPVTLRRRMLAAAAERRLQKQQTS
B2: the “E2 association of full-length gp78 forms with co-expressed Myc-Ube2G2” value in the assay with Myc-Ube2G2 was “loss of E2 binding”. Moreover, the “effect on CD3-δ level (stabilization)” value with ERAD substrate CD3-δ is recorded as “neither significantly stabilized CD3-δ nor enhanced its loss”. In addition, the “gp78 level compared to wild type” value in the assay with gp78 [1] was “increased gp78”. Also, the “gp78 ubiquitylation (ubiquitin immunoreactivity)” value in the assay with gp78 [2] was “dramatic decrease in ubiquitin immunoreactivity”.
